Test system: MS2 coat protein
Assay: apparent KD of MS2 coat protein; designed switch direction (-1 OFF switch, 1 ON switch): -1; higher = weaker reporter binding
In short: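 The buffer was Tris-HCl pH 7.5 with KCl, MgCl2, BSA, DTT, tRNA and Tween-20. In it, SNAP-549-labelled MS2 coat protein was titrated in doubling steps from 0.7 or 1.5 nM to 3 µM over chip-bound RNA switches transcribed by stalled E. coli RNA polymerase on Illumina chips. Apparent KD is the per-design median over clusters of curve fits to normalised fluorescence.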

[1] = input ligand: microRNA oligo, concentration not stated
[2] = Eterna round: R95, input ligand: FMN 200 uM
[3] = Eterna round: R95, input ligand: microRNA oligo, concentration not stated
[4] = Eterna round: R95, input ligand: none

Sequence | apparent KD of MS2 coat protein [1] [nM] | apparent KD of MS2 coat protein [2] [nM] | apparent KD of MS2 coat protein [3] [nM] | apparent KD of MS2 coat protein [4] [nM] | apparent KD of MS2 coat protein (input ligand: FMN 200 uM) [nM] | apparent KD of MS2 coat protein (input ligand: none) [nM]
UUAUUAUAUGUAGGAUAUGCAUAUUAUUAUUAUGCAGAAGGACAUGAGGAUCACCCAUGUAUAUUAUUAUUAUAUAUUAUAUGU [Title] (Eterna round: R96, puzzle: Exclusion NG 1) | 33.8 | – | – | – | – | –
AAAAGGCGAGGAUAUACAUGAGGAUCACCCAUGUGAAAGAAAGAAAGAAAGAAGAAAGGUAGAAGGCGCAAAGA [Mine, also!] (puzzle: Exclusion 3) | – | 83.6 | 42.6 | 67 | – | –
ACAUGAGGAUCACCCAUGUCCGGCUGGUCCGUCUCGGCUGUCGAGGAUAUGGCUCGGUGUCCGCGCUAGAAGGUGGGAGCCGGC [Aenatbe mod 73] (Eterna round: R96, puzzle: Exclusion NG 3) | 127 | – | – | – | 332 | 266
GCAGGAUAAGUGAGGAUAUACCUAUGGAUACAUAGGUAGAAGGCACAUGAGGAUCACCCAUGUUCCUAACCUGC [Fiskers BMX 4 - 68] (puzzle: Brourd's mod of Exclusion 4) | – | 70.9 | 12.8 | 15.1 | – | –
GCGCCAUCGUGAGAUGGCGUUCCGACAUGAGGAUCACCCAUGUAGGAUAUCGAUUGCUUUGCAGUCGAGAAGGGCGUGAUAAGU [JL ENG3 3.73] (Eterna round: R96, puzzle: Exclusion NG 3) | 17.8 | – | – | – | 18.3 | 22.9
UUUUAACAUGAGGAUCACCCAUGUGAGGAUAUCGAAAUUUAUAUUAAUAUUUAUAUAUCGAGAAGGCACAUUUU [JMF 56] (puzzle: Exclusion 1) | – | – | 117 | – | – | –
GGGCCCGGAGGAUAUACAUGAGGAUCACCCAUGUAGGGCCCGGGUAUUUUUGGGCCCUGUAGAAGGCCGGGCCC [-41.6, -38.7 kcal, A 19%, 5c,0] (Eterna round: R97, puzzle: Exclusion 3) | – | – | – | – | 13 | 12.6
CCAGGCAAUUCCACUUGUAACAUGAGGAUCACCCAUGUGACCUGGUAUCAAGGCAGCUCGUCAUCCCACCAUAUUCA [Eternabot (L1) Solution 23] (Eterna round: R97, puzzle: Sensor, turn-off variant 1) | – | – | – | – | 18.8 | 18.4
AGCUGUGGCCGAGGAUAUCCAACUUCAAAUACCGACGUAUAGUCGGACAUGAGGAUCACCCAUGUGGAGAAGGCGGUCUCAGCA [Eli eng2 - 038] (Eterna round: R96, puzzle: Exclusion NG 2) | 12.5 | – | – | – | 24.2 | 15.6
UUUUACAUGCUGAGAUCCUACAUGAGGAUCACCCAUGUGGUCCGGUGACGUGAGUCACCGGACUUAGCUCGUCUUGU [salish99_S_TOV1_R5_099] (Eterna round: R97, puzzle: Sensor, turn-off variant 1) | – | – | – | – | 186 | 304
CCUCUGUAAGGAUAUACGGAGACGGCUGGAAUCAGUGGAAAGUAGAAGGUACAUGAGGAUCACCCAUGUGAGAC [Anceleso] (puzzle: Exclusion 4) | – | – | 20.2 | – | – | –
ACAUGACUGCUAGGAUAUAGAUGACAUGAGGAUCACCCAUGUUGUCCCAUGUUUAUGGAAACGGACUAGAAGGAGUAGUAUAUG [Ex NG2 #14] (Eterna round: R96, puzzle: Exclusion NG 2) | 23.4 | – | – | – | 30.7 | 27.9
AAUGGGUGUGUGAGGAUAUACGAAGGCAAUUGCCAGUAGAAGGUACAUGAGGAUCACCCAUGUGUCCAAAAGAG [Tititemaon] (puzzle: Brourd's mod of Exclusion 4) | – | 12.8 | 9.11 | 13.2 | – | –
AUAUAGCGAGGAUAUACAUGAGGAUCACCCAUGUGGUAGUAGAUACAGUAGAGAUAGAGUAGAAGGCGCUAUGA [EX3 #7] (Eterna round: R97, puzzle: Exclusion 3) | – | – | – | – | 416 | 79.2
AGUAACCGUCACGAAAGUGAUGGUUACACAAGAAAUGAAACAUGAGGAUCACCCAUGUCCUCAUUUGCUCGUCUUAU [Sensor 3 - 38] (puzzle: Sensor v3, turn-off variant 2) | – | 176 | 288 | 259 | – | –
CAGUACUGAGGAUAUACAUGAGGAUCACCCAUGUGUCUAAUAUUAGGAAACUAGGUAUGUAGAAGGCAGUACUG [Omei Ex3 Mod of Eli 4.27 v6] (Eterna round: R97, puzzle: Exclusion 3) | – | – | – | – | 318 | 36.1
ACUUGUAGAGGAUAUACGAGGGCCCAAGCGGCGAGAGCCGCACAUGAGGAUCACCCAUGUAGAAGGCUACUAUU [JL-ex2-4.25 ViennaUCT mod] (Eterna round: R97, puzzle: Exclusion 2) | – | – | – | – | 374 | 116

Sequence | apparent KD of MS2 coat protein [1] [nM] | apparent KD of MS2 coat protein [2] [nM] | apparent KD of MS2 coat protein [3] [nM] | apparent KD of MS2 coat protein [4] [nM] | apparent KD of MS2 coat protein (input ligand: FMN 200 uM) [nM] | apparent KD of MS2 coat protein (input ligand: none) [nM]
UUUUUAUAUGAAGGAUAUACUUAACAUGAGGAUCACCCAUGUGGUGUUGUGAGUGAGUGAGUUUAGUAGAAGGUCAAUUAGUGU [JMF's solution 102] (Eterna round: R96, puzzle: Exclusion NG 2) | 314 | – | – | – | 998 | 476
GAUGGCUUAGGAUAUACAUAGAAGAAUUGAACUUGGAUUAUACAUGAGGAUCACCCAUGUAGAAGGAGGUCAUC [ExGluten 4 - Jieux - Exclusion 2] (Eterna round: R97, puzzle: Exclusion 2) | – | – | – | – | 53 | 29.1
CAUGGAACAUAGGAUAUCUCGCGGCUAGGCUGCAGAGAAGGAUGUACAUGAGGAUCACCCAUGUAUGAUCCAAU [Ataratin] (puzzle: Exclusion 6) | – | – | 16.3 | – | – | –
ACAUGUUAUUUAGGAUAUUGGACACAUGAGGAUCACCCAUGUACCCGGAGGCUUUACUAUGAGUUCGAGAAGGAGAUGUACAUG [Ex NG2 #70] (Eterna round: R96, puzzle: Exclusion NG 2) | 59.3 | – | – | – | 89.3 | 75.6
CAGUACUGAGGAUAUACAUGAGGAUCACCCAUGUGCUUUAGCUAGGAUACUAGCAUCAGUAGAAGGCAGUACUG [Fiskers Ex 3 828 mod 11] (puzzle: Exclusion 3) | – | – | 12.9 | – | – | –
CGAUGAGCGGUGAGGAUAUCGUGUUCGAAAGAACGUGAGAAGGCACAUGAGGAUCACCCAUGUGAUCCUCAUCG [Omei Ex4B A34] (Eterna round: R97, puzzle: Brourd's mod of Exclusion 4) | – | – | – | – | 21.4 | 15.2
AAAUUGGUAGAGGAUAUCGCACAGGAUUUACUGCGAGAAGGCUGCACAUGAGGAUCACCCAUGUUUAGUUGCGA [EX6 #36] (Eterna round: R97, puzzle: Exclusion 6) | – | – | – | – | 20.3 | 17.3
UCGGCGCUAGGAUAUGCGUCGAAAGACAUGAGGAUCACCCAUGUGGUGCUCCUUAUUAAAGCAGAAGGAGCCCGUA [EX5 A.17] (Eterna round: R97, puzzle: Exclusion 5) | – | – | – | – | 300 | 152
GGUGAGCUAGGAUAUGCUUUGGGCUCGCAUUCCUUCGAUAAACUUGAGGAUCACCCAAGUAGAAGGAGCUUGCC [salish99_ex2_r4_032] (Eterna round: R97, puzzle: Exclusion 2) | – | – | – | – | 23.3 | 15.8
UAACAAAUGGUCAGGAUAUCACUCCCGGCCCAGAGUGAGAAGGGACAUGAGGAUCACCCAUGUAUGAUUCUCAC [jl-ex4-4.54 ViennaUCT mod] (Eterna round: R97, puzzle: Brourd's mod of Exclusion 4) | – | – | – | – | 19.7 | 15.1
GAUGGUCGAGGAUAUGCACCAGGGUCGACCUACUAGCGAAGACAUGAGGAUCACCCAUGUAGAAGGUGGCGGUU [Eternabot (L2) Solution 75] (Eterna round: R97, puzzle: Exclusion 2) | – | – | – | – | 73.9 | 82.4
GAGGCAUGCCUAGGUCCACACAUGAGGAUCACCCAUGUAAUGACAGGCUUUUUACUCGUUUUAUCGCUAUCGCGUUC [Enaor] (puzzle: Sensor v3, turn-off variant 1) | – | 13.2 | 20.7 | 11.8 | – | –
UUAUCCGCUGAGGAUAUUAUCACUGAGAGGUGAUGAGAAGGCGGUACAUGAGGAUCACCCAUGUCUAUGGGCAG [Ex-6 Malc#23] (puzzle: Exclusion 6) | – | 584 | 228 | 864 | – | –
CUUAGCCUAAAAUCACGCAAGCUCUUUGCUUGUCUUAAGACAUGAGGAUCACCCAUGUCCGGGCUGAACUUAUGGAA [Qugegele] (puzzle: Sensor v3, turn-off variant 2) | – | 19.9 | 24.9 | 21 | – | –
GCCGAAAAUGUGAGGAUAUACCUAUGGAUACAUAGGUAGAAGGCACAUGAGGAUCACCCAUGUCUAAUAACGGC [Eli bmx4 4.26] (Eterna round: R97, puzzle: Brourd's mod of Exclusion 4) | – | – | – | – | 521 | 212
CUGUUCCAUGUAGGAUAUGCAUAUUCUCAUUAUGCAGAAGGACAUGAGGAUCACCCAUGUAUGUUAUUAUUAUAUGUUACAUGU [Design 3] (Eterna round: R96, puzzle: Exclusion NG 1) | 47.7 | – | – | – | 633 | 64.9
AGUACUAACACGUUAGUGUUAGUACAAUAAGCUUGUGAAACAUGAGGAUCACCCAUGUCCUCAUAAGCUCGUCUUAU [salish99_TOv2_r3_056] (puzzle: Sensor v3, turn-off variant 2) | – | 16.7 | 645 | 16.1 | – | –
